Assay [1] addresses T1, soluble cynomolgus monkey PD-1 (scyno PD-1 hFc) cleaved to remove Fc portion (cynomolgus monkey, UniProt B0LAJ3 25-170). Kind of assay: Biacore, mAb captured on F(ab)2 goat anti-human Fc, analyte scyno PD-1 hFc cleaved of Fc.
Assay [2] concerns the target T1, soluble cynomolgus monkey PD-1 (scyno …). Kind of assay: Biacore, mAb captured on Protein A, analyte scyno PD-1 hFc cleaved of Fc.
Assay [3] deals with T2, soluble human PD-1 (the extracellular domain of human PD-1 fused to a His tag) (human, UniProt Q15116 25-170).
T2 construct: also called shPD-1 His; shPD-1-His; not shown: His tag
Kind of assay: Biacore, mAb captured on Protein A, analyte shPD-1 His. Background: Surface plasmon resonance follows binding to a sensor surface in real time, without labels.

For assay [4], the target named is T2, soluble human PD-1 (the extracellular …). Kind of assay: ELISA: shPD-1 His coated at 0.5 ug/ml, goat anti-mouse IgG (H+L) detection, RLU. (ELISA stands for enzyme-linked immunosorbent assay.)
For assay [5], the target named is T3, soluble human PD-1 (the extracellular domain of human PD-1 fused to a human Fc Region) (human, UniProt Q15116 25-170).
T3 construct: whole entry named; also called shPD-1 hFc; shPD-1-human Fc; not shown: human Fc Region
Kind of assay: ELISA: shPD-1 hFc coated at 0.5 ug/ml, goat anti-mouse IgG (H+L) detection, RLU.

The target in assay [6] is T4, soluble cynomolgus monkey PD-1 (the extracellular domain of cynomolgus monkey PD-1 fused to a human Fc Region) (cynomolgus monkey, UniProt B0LAJ3 25-170).
T4 construct: also called scyno-PD1 Fc; scynoPD-1-hFc; not shown: Human Fc Region and any linker or cleavage site between the extracellular domain and the Fc
Kind of assay: ELISA: scyno-PD-1-TEV-Fc coated at 1 ug/ml, goat anti-mouse IgG (H+L) detection, RLU.

Assay [7] concerns the target T5, human PD-1 expressed on the surface of cells (NSO cells expressing human PD-1; MNFAT-luc2/PD-1 Jurkat cells) (human, UniProt Q15116 21-288).
T5 construct: also called cell surface PD-1; PDCD1 transfected NSO cells expressing PD-1
Kind of assay: FACS saturation binding on NSO cells expressing human PD-1, goat anti-human-APC, MFI, 1:4 dilutions.

The target of assay [8] is T5, human PD-1 expressed on the surface of …. Kind of assay: FACS blocking on NSO cells expressing human PD-1, 1:4 dilutions, MFI; blocked ligand: biotinylated sPD-L2, streptavidin-PE.
Assay [9] has the same target. Kind of assay: FACS blocking on NSO cells expressing human PD-1, 1:4 dilutions, MFI; blocked ligand: biotinylated sPD-L1, streptavidin-PE.

T5 sequence (Q15116 21-288): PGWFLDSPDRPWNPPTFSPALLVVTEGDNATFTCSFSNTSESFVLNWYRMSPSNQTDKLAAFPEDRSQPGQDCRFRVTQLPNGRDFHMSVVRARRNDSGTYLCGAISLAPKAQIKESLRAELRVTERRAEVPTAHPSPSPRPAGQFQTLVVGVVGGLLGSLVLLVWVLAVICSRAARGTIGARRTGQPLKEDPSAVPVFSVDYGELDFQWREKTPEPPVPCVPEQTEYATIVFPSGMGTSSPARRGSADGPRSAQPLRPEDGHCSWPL
T4 sequence (B0LAJ3 entry or part of it limits assumed): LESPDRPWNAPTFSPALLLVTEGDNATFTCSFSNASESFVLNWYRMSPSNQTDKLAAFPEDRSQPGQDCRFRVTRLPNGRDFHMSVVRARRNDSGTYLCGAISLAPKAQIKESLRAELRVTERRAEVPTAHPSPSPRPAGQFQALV
T1 sequence (B0LAJ3 entry or part of it limits assumed): as above
T2 sequence (Q15116 25-170): as the sequence (B0LAJ3 entry or part of it limits assumed) above, with E2D, A10P, L19V, A35T, R75Q, A144T counted along it
T3 sequence (Q15116 25-170): as the sequence (B0LAJ3 entry or part of it limits assumed) above, with E2D, A10P, L19V, A35T, R75Q, A144T counted along it

B1: PD-1 mAb A IgG1 (AA) (antibody, V domains shown)
VH: QVQLVESGGGVVQPGRSLRLDCKASGITFSNSGMHWVRQAPGKGLEWVAVIWYDGSKRYYADSVKGRFTISRDNSKNTLFLQMNSLRAEDTAVYYCATNDDYWGQGTLVTVSS
VL: EIVLTQSPATLSLSPGERATLSCRASQSVSSYLAWYQQKPGQAPRLLIYDASNRATGIPARFSGSGSGTDFTLTISSLEPEDFAVYYCQQSSNWPRTFGQGTKVEIK
What is called Kd is the equilibrium constant for the complex coming apart. In assay [1], B1 gave a Kd of 5.6 nM.

B2: PD-1 mAb A (nivolumab), constant region not named where tested (antibody, V domains shown)
VH: QVQLVESGGGVVQPGRSLRLDCKASGITFSNSGMHWVRQAPGKGLEWVAVIWYDGSKRYYADSVKGRFTISRDNSKNTLFLQMNSLRAEDTAVYYCATNDDYWGQGTLVTVSS
VL: EIVLTQSPATLSLSPGERATLSCRASQSVSSYLAWYQQKPGQAPRLLIYDASNRATGIPARFSGSGSGTDFTLTISSLEPEDFAVYYCQQSSNWPRTFGQGTKVEIK
notes: also called 5C4; BMS-936558
Molecule B2 displayed a dissociation constant Kd in [2] of 6.9 nM.

B3: hPD-1 mAb 9 (1.1), constant region not named where tested (antibody, V domains shown)
VH: EVQLVESGGGLVRPGGSLKLSCAASGFTFSSYLVSWVRQAPGKGLEWVATISGGGGNTYYSDSVKGRFTISRDNAKNSLYLQMNSLRAEDTATYYCARYGFDGAWFAYWGQGTLVTVSS
VL: DIQMTQSPSSLSASVGDRVTITCRASENIYSYLAWYQQKPGKAPKLLIYNAKTLAAGVPSRFSGSGSGTDFTLTISSLQPEDFATYYCQHHYAVPWTFGQGTKLEIK
For B3, the dissociation constant (Kd) in assay [3] worked out at 36.1 nM; in assay [2] it was 73.3 nM.

B4: PD-1 mAb 8 (antibody, V domains shown)
VH: EGQLQQSGPELVKPGASVKISCKASGYTFTDYYMNWVKQNHGKSLEWIGDINPKNGDTHYNQKFKGEATLTVDKSSTTAYMELRSLTSEDSAVYYCASDFDYWGQGTTLTVSS
VL: DVVMTQTPLSLPVGLGDQASISCRSSQTLVYSNGNTYLNWFLQKPGQSPKLLIYKVSNRFSGVPDRFSGSGSGTDFTLKISRVEAEDLGVYFCSQSTHVPFTFGSGTKLEIK
notes: Murine monoclonal antibody
As to B4, the binding result in assay [4], in assay [5] and in assay [6] was “binds” each time.

B5: hPD-1 mAb 7 (1.2), constant region not named where tested (antibody, V domains shown)
VH: QVQLVQSGAEVKKPGASVKVSCKASGYSFTSYWMNWVRQAPGQGLEWIGVIHPSDSETWLDQKFKDRVTITVDKSTSTAYMELSSLRSEDTAVYYCAREHYGTSPFAYWGQGTLVTVSS
VL: EIVLTQSPATLSLSPGERATLSCRASESVDNYGMSFMNWFQQKPGQPPKLLIHAASNQGSGVPSRFSGSGSGTDFTLTISSLEPEDFAVYFCQQSKEVPYTFGGGTKVEIK
With B5, the Kd in [3] came to 0.39 nM; in assay [2] it was 1.7 nM.

B6: PD-1 mAb 12 (antibody, V domains shown)
VH: QGHLQQSGAELVRPGASVTLSCKASGFTFTDYEMHWVKQTPVHGLEWIGTIDPETGGTAYNQKFKGKAILTVDKSSTTTYMELRSLTSEDSAVFYCSRERITTVVEGAYWYFDVWGTGTTVTVSS
VL: DVLMTQTPLSLPVSLGDQASISCRSSQNIVHSNGNTYLEWYLQKPGQSPKLLICKVSTRFSGVPDRFSGSGSGTDFTLKISRVEAEDLGVYYCFQGSHVPYTFGGGTKLEIK
notes: Murine monoclonal antibody
On to B6, for which the binding result in assay [4], in assay [5] and in assay [6] was “binds” each time.

B7: hPD-1 mAb 2 IgG1 (AA) (antibody, V domains shown)
VH: EVQLVESGGGLVQPGGSLRLSCAASGFVFSSFGMHWVRQAPGKGLEWVAYISSGSMSISYADTVKGRFTISRDNAKNTLYLQMNSLRTEDTALYYCASLSDYFDYWGQGTTVTVSS
VL: DVVMTQSPLSLPVTLGQPASISCRSSQSLVHSTGNTYLHWYLQKPGQSPQLLIYRVSNRFSGVPDRFSGSGSGTDFTLKISRVEAEDVGVYYCSQTTHVPWTFGQGTKLEIKR
What is called EC50 (read off the curve) is the concentration needed to bring the measured effect to its halfway point. On to B7, for which the “EC50 (read off the curve)” value in assay [7] is approximately 0.5 µg/mL. Moreover, the entries for the “IC50 (read off the curve)” value in assay [8] and in assay [9] were approximately 0.1 ug/test and approximately 0.04 ug/test, respectively.

B8: hPD-1 mAb 2, constant region not named where tested (antibody, V domains shown)
VH: EVQLVESGGGLVQPGGSLRLSCAASGFVFSSFGMHWVRQAPGKGLEWVAYISSGSMSISYADTVKGRFTISRDNAKNTLYLQMNSLRTEDTALYYCASLSDYFDYWGQGTTVTVSS
VL: DVVMTQSPLSLPVTLGQPASISCRSSQSLVHSTGNTYLHWYLQKPGQSPQLLIYRVSNRFSGVPDRFSGSGSGTDFTLKISRVEAEDVGVYYCSQTTHVPWTFGQGTKLEIK
notes: also called humanized PD-1 mAb 2
Consider B8, for which the Kd was 5 nM in assay [3] and 17 nM in [2].

B9: PD-1 mAb 10 (antibody, V domains shown)
VH: EVILVESGGGLVKPGGSLKLSCAASGFTFSNYLMSWVRQTPEKRLEWVASISGGGSNIYYPDSVKGRFTISRDNAKNTLYLQMNSLRSEDTALYYCARQELAFDYWGQGTTLTVSS
VL: DIQMTQTTSSLSASLGDRVTISCRTSQDISNFLNWYQQKPDGTIKLLIYYTSRLHSGVPSRFSGSGSGTDYSLTISNLEQEDIATYFCQQGSTLPWTFGGGTKLEII
notes: Murine monoclonal antibody
Turning to B9, the binding result in assay [4], in [5] and in assay [6] was “binds” throughout.

B10: hPD-1 mAb 15 IgG1 (AA) (antibody, V domains shown)
VH: EVQLVESGGGLVRPGGSLRLSCAASGFTFSSYLISWVRQAPGKGLEWVAAISGGGADTYYADSVKGRFTISRDNAKNSLYLQMNSLRAEDTATYYCARRGTYAMDYWGQGTLVTVSS
VL: DIQMTQSPSSLSASVGDRVTITCLASQTIGTWLAWYQQKPGKAPKLLIYAATSLADGVPSRFSGSGSGTDFTFTISSLQPEDFATYYCQQLYSIPWTFGQGTKLEIKR
B10: the “IC50 (read off the curve)” value in assay [8] was approximately 0.09 ug/test; in assay [9], approximately 0.04 ug/test.

B11: hPD-1 mAb 15, constant region not named where tested (antibody, V domains shown)
VH: EVQLVESGGGLVRPGGSLRLSCAASGFTFSSYLISWVRQAPGKGLEWVAAISGGGADTYYADSVKGRFTISRDNAKNSLYLQMNSLRAEDTATYYCARRGTYAMDYWGQGTLVTVSS
VL: DIQMTQSPSSLSASVGDRVTITCLASQTIGTWLAWYQQKPGKAPKLLIYAATSLADGVPSRFSGSGSGTDFTFTISSLQPEDFATYYCQQLYSIPWTFGQGTKLEIK
notes: also called humanized PD-1 mAb 15
B11: the Kd in [3] worked out at 13.3 nM; in assay [2], 78.3 nM.

B12: PD-1 mAb 11 (antibody, V domains shown)
VH: EVQLQQSGTVLARPGASVKMSCKTSGYTFTGYWMHWVKQRPGQGLKWMGAIYPGNSDTHYNQKFKGKAKLTAVTSASTAYMELSSLTNEDSAIYYCTTGTYSYFDVWGTGTTVTVSS
VL: DILLTQSPAILSVSPGERVSFSCRASQSIGTSIHWYQHRTNGSPRLLIKYASESISGIPSRFSGSGSGTDFTLSINSVESEDIADYYCQQSNSWLTFGAGTKLELK
notes: Murine monoclonal antibody
On to B12, for which the “EC50 (read off the curve)” value in assay [4] and in assay [6] was approximately 0.2 µg/mL in each case. For the same molecule, the binding result in [5] is recorded as “binds”.

B13: PD-1 mAb 13 (antibody, V domains shown)
VH: EVMLVESGGGLVKPGGSLKLSCAASGFTFSSHTMSWVRQTPEKRLEWVATISGGGSNIYYPDSVKGRFTISRDNAKNTLYLQMSSLRSEDTALYYCARQAYYGNYWYFDVWGTGTTVTVSS
VL: DIQMTQSPATQSASLGESVTITCLASQTIGTWLAWYQQKPGKSPQLLIYAATSLADGVPSRFSGSGSGTKFSFKISSLQAEDFVSYYCQQLDSIPWTFGGGTKLEIK
notes: Murine monoclonal antibody
In the case of B13, the binding result in assay [4], in assay [5] and in assay [6] was “binds” each time.

B14: PD-1 mAb 15 (antibody, V domains shown)
VH: EVMLVESGGGLVKPGGSLKLSCAASGFIFSSYLISWVRQTPEKRLEWVAAISGGGADTYYADSVKGRFTISRDNAKNTLYLQMSSLRSEDTALYYCTRRGTYAMDYWGQGTSVTVSS
VL: DIQMTQSPASQSASLGESVTITCLASQTIGTWLAWYQQKPGKSPQLLIYAATSLADGVPSRFSGSGSGTKFSFKISSLQAEDFVNYYCQQLYSIPWTFGGGTKLEIK
notes: Murine monoclonal antibody
Take B14: the binding result in [5] and in assay [6] was “binds” in each case. The Kd in assay [3] stood at 2.9 nM; in [2], 40.7 nM.

B15: PD-1 mAb 14 (antibody, V domains shown)
VH: QVQLQQPGAELVKPGASVKMSCKASGYNFISYWITWVKQRPGQGLQWIGNIYPGTDGTTYNEKFKSKATLTVDTSSSTAYMHLSRLTSEDSAVYYCATGLHWYFDVWGTGTTVTVSS
VL: DIVMTQSQKFMSTSVGDRVSVTCKASQSVGTNVAWYQQKPGQSPKALIYSASSRFSGVPDRFTGSGSGTDFTLTISNVQSEDLAEYFCQQYNSYPYTFGGGTKLEIK
notes: Murine monoclonal antibody
B15: the binding result in assay [4], in [5] and in [6] was “binds” throughout.
